Source: US20070274981A1
Each block holds one binder with its values, some of them ahead of it.

What was measured:
[1] = molecular target: Recombinant FGFR-1(IIIc) (UniProt P11362); assay: ELISA blocking assay: FGFR-1(IIIc) binding to FGF-2
[2] = molecular target: Recombinant FGFR-1(IIIc) (UniProt P11362); assay: ELISA blocking assay: FGFR-1(IIIc) binding to FGF-1
[3] = molecular target: Recombinant FGFR-1(IIIc) (UniProt P11362); assay: kinetic analysis (BiaCore)
[4] = molecular target: Recombinant FGFR-1(IIIc) (UniProt P11362); assay: ELISA blocking assay: FGFR-1(IIIc) binding to immobilised FGF-2
[5] = molecular target: Recombinant FGFR-1(IIIc) (UniProt P11362); assay: BiaCore 3000 biosensor, binding kinetics
[6] = molecular target: Recombinant FGFR-1(IIIc) (UniProt P11362); assay: ELISA blocking assay: FGFR-1(IIIc) binding to immobilised FGF-1
[7] = molecular target: FGFR-1(IIIc) on transfected L6 cells (UniProt P11362); assay: cell-based blocking assay: 125I-FGF-2 (15 ng/ml) binding to FGFR-1(IIIc)-expressing L6 cells

IC50 [1]: 10 nM | IC50 [2]: 5 nM | Kd [3]: 0.7 nM
B1: FR1-A1 (antibody, V domains shown)
VH: QVQLVQSGAEVKKPGSSVKVSCKASGQTFTGYYMHWVRQAPGQGLEWMGRIIPILGIANYAQKFQGRVTITADKSTSTAYMELSSLRSEDTAVYYCARGGDLGGMDVWGQG
VL: EIVLTQSPLSLPVTPGEPASISCRSSQSLRHSNGYNYLDWYLQKPGQSPQLLIYLASNRASGVPDRFSGSGSGTDFTLKISRVEAEDVGVYYCMQALQIPPTFGPGTKVDIKR

IC50 [4]: 2 to 5 nM | Kd [5]: 0.04 nM | IC50 [6]: 5 nM | IC50 [7]: < 5 nM | Kd [3]: 0.05 nM
B2: FR1-H7 (antibody, V domains shown)
VH: EVQLVQSGAEVKKPGASVKVSCKVSGYTFTDYYMHWVQQAPGKGLEWMGLVDPEDGETIYAEKFQGRVTITADTSTDTAYMELSSLRSEDTAVYYCARDDYMDVWGKGTLVTVSS
VL: ETTLTQSPDTLSLSPGEGATLSCRASQSVSGSALAWYQQKPGQAPRLLIYDASSRATGVPDRFSGSGSGADFSLTISRLEPEDFAVYSCQQYGSSPLTFGPGTKVDVKR
